{"source": "patent US20220098591", "key": {"[1]": {"system": "T1, VEGF-A165 (Homo sapiens)", "T1 sequence": "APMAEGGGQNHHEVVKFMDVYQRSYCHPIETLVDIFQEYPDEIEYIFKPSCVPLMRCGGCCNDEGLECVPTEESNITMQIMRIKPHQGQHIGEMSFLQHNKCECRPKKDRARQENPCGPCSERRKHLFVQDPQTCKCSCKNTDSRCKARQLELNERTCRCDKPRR", "details": "all G 2'-F; A,C,U 2'-OMe; Sp3 (1,3-propanediol) joins the two parts (position 9); 5' C6NH2; 3' idT; direct TR-FRET, RT"}, "[2]": {"biological_target": "T2, VEGF-A121 (Homo sapiens) (UniProt P15692)", "T2 sequence": "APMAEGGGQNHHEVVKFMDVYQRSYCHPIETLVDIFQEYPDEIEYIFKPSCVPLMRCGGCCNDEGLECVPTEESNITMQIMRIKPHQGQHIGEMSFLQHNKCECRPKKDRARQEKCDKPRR", "details": "all G 2'-F; A,C,U 2'-OMe; Sp3 (1,3-propanediol) joins the two parts (position 9); 5' C6NH2; 3' idT; direct TR-FRET, RT"}}, "data": [{"sequence": "AGGCCGCCCCGCGCGGAGGGGUUUCAUUAUCCCGUUUGGCGGCUU [Aptamer 47]", "values": [{"measurement": "Kd", "setting": "[1]", "value": 2.1, "unit": "nM"}, {"measurement": "Kd", "setting": "[2]", "value": 11, "unit": "nM"}]}]}
